US20220267469A1 (LIPUM, published 2022)

B2: Mouse BSSL, recombinant (enzyme)
chain: AKLGAVYTEGGFVEGVNKKLSLLGGDSVDIFKGIPFATAKTLENPQRHPGWQGTLKATNFKKRCLQATITQDNTYGQEDCLYLNIWVPQGRKQVSHNLPVMVWIYGGAFLMGSGQGANFLKNYLYDGEEIATRGNVIVVTFNYRVGPLGFLSTGDANLPGNFGLRDQHMAIAWVKRNIAAFGGDPDNITIFGESAGAASVSLQTLSPYNKGLIRRAISQSGMALSPWAIQKNPLFWAKTIAKKVGCPTEDTGKMAACLKITDPRALTLAYKLPVKKQEYPVVHYLAFIPVIDGDFIPDDPINLYNNTADIDYIAGINNMDGHLFATIDVPAVDKTKQTVTEEDFYRLVSGHTVAKGLKGAQATFDIYTESWAQDPSQENMKKTVVAFETDVLFLIPTEIALAQHKAHAKSAKTYSYLFSHPSRMPIYPKWMGADHADDLQYVFGKPFATPLGYRPQDRAVSKAMIAYWTNFARSGDPNMGNSPVPTHWYPYTLENGNYLDITKTITSASMKEHLREKFLKFWAVTFEVLPTVTGDQDTLTPPEDDSEVAPDPPSDDSQVVPVPPTDDSVEAQMPATIGF
notes: Bought (R&D Systems, Cat. no 5658-CE); also called mBSSL; murine BSSL

Columns and labels:
[1] = biological target: T1, Human BSSL (bile salt-stimulated lipase), native (human, UniProt P19835 21-753); test: SPR single cycle kinetics, hIgG4 S228P captured by anti-Fab
T1 construct: Native full-length protein purified from human milk (Astra Hässle AB); also called hBSSL; non-biotinylated human BSSL
T1 sequence: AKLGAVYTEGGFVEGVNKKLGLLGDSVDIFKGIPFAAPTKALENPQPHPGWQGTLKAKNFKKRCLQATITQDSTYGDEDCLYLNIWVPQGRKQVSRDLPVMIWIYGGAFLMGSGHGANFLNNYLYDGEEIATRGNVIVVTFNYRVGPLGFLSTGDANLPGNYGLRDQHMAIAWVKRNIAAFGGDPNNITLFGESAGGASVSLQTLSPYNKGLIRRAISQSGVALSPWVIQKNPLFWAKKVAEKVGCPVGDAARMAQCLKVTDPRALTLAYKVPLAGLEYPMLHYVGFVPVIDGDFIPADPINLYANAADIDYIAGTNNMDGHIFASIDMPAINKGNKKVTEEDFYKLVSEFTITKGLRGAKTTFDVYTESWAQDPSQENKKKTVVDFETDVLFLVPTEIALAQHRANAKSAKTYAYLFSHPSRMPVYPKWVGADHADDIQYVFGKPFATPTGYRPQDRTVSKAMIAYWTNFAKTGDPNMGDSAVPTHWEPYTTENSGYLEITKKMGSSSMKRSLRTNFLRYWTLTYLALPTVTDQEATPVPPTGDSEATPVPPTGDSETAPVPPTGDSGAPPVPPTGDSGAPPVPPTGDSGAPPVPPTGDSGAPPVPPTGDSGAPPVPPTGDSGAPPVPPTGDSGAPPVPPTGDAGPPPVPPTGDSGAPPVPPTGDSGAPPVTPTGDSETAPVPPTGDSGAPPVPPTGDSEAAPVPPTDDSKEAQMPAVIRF
In short: (§1)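 hIgG4 S228P captured on an immobilized anti-Fab surface; five BSSL concentrations injected, 1:5 dilutions from 50 nM (human) or from 500 nM (mouse). Human BSSL: single-cycle kinetics, 1:1 fit. Mouse BSSL: KD from steady-state equilibrium response versus concentration. Regeneration with 10 mM glycine-HCl pH 2.1.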

Biotinylated human BSSL [2] = biological target: T2, Biotinylated human BSSL (human, UniProt P19835 21-753, Biotinylated on glycosacarides, 30-40 biotin/BSSL); test: flow cytometry displacement assay; 3.0 ug antibody, 1 ug b-hBSSL
T2 construct: hBSSL biotinylated in house; also called b-hBSSL; human BSSL-biotin
T2 sequence: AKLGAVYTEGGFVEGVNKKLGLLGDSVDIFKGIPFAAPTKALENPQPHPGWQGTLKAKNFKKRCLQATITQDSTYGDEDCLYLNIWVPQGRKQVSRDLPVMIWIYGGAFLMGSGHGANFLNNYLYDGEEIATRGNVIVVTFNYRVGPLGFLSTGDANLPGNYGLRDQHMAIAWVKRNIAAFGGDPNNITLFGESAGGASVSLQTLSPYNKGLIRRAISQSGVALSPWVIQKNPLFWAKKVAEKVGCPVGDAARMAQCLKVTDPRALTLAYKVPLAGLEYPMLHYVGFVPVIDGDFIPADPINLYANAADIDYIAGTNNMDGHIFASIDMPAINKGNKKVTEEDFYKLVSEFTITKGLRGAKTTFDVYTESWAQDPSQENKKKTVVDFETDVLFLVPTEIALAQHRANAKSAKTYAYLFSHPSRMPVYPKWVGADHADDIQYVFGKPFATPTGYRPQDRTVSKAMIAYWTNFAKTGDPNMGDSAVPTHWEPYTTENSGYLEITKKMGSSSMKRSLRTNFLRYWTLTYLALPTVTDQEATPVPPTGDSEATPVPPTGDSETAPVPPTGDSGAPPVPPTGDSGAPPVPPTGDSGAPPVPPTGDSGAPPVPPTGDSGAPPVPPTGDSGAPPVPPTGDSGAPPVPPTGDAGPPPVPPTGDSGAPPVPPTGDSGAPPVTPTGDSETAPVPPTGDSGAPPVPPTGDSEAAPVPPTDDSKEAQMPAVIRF
In short: (§2)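 Antibody (0.5–3.0 μg per reaction) preincubated with 1 μg biotinylated human BSSL in PBS pH 7.4, 30 min at 4 °C, then with human buffy coat 30 min at 4 °C. After erythrocyte lysis/fixation, bound BSSL on CD14+ monocytes detected by labelled streptavidin via flow cytometry.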

Biotinylated human BSSL [3] = biological target: T2, Biotinylated human BSSL; test: flow cytometry displacement assay; 0.5 ug antibody, 1 ug b-hBSSL
Protocol: (§3) The 28 BSSL-specific hIgG4 antibodies and the five reference antibodies at different concentrations (ranging from 0.5 μg to 3.0 μg per reaction; see Table 10) were added to b-hBSSL (1 μg per reaction, see Table 2) in round-bottom polystyrene tubes, lx PBS (pH 7.4) was added to a final volume of 20 μl and the antibody/b-hBSSL mixtures were incubated for 30 min. at +4° C. to facilitate binding of antibodies to BSSL. Buffy coat (50 μl) was then added to each antibody/b-hBSSL mixture and incubation continued for another 30 min at +4° C. Thereafter, 2 ml of FACS lysing solution (BD Biosciences) was added and the cells were incubated for 10 min at room temperature in order to lyse erythrocytes and fix the white blood cells. The cells were then centrifuged for 5 min. at 200×g, the resulting pellets were washed by adding 2 ml of FACS buffer (1×PBS supplemented with 1% FCS and 0.1% NaN3) and centrifuged again. Finally, the supernatants were discarded and the cells were resuspended in the last drop of liquid, approximately 50 μl.
(§4) 5 μl of BV421-labelled anti-human CD14 (BD Biosciences) and 5 μl of BB515-labelled streptavidin (BD Biosciences) was added to each tube and incubated for 30 min, at +4° C., protected from light. Thereafter, cells were washed twice with FACS buffer, resuspended in 500 μl FACS buffer, and run on BD LSRII flow cytometer (BD Biosciences). Finally, data were analyzed using FlowJo software (BD Biosciences).

[4] = biological target: T1, Human BSSL (bile salt-stimulated …); test: cell-based or functional assay
Biotinylated human BSSL [5] = biological target: T2, Biotinylated human BSSL; test: flow cytometry displacement assay; 1.5 ug antibody, 1 ug b-hBSSL
In short: as §2

Mouse BSSL, recombinant [6] = biological target: B2; test: SPR steady state, captured by anti-Fab, Absolute Antibody batch
Protocol: (§5) Kinetic parameters of the hIgG4 S228P clones were determined by SPR using BIACORE® T200 (GE Healthcare). An anti-Fab antibody (GE #28958325) was immobilized on a CM5 S sensor chip by primary amine coupling using NHS-EDC chemistry. The hIgG4 antibodies were captured by the anti-Fab antibody, and subsequently, five different concentrations of hBSSL (1:5 dilutions, 0.08-50 nM) or mBSSL (1:2 dilutions, 50-800 nM) were injected over the surface. The sensor chip surface was regenerated with 10 mM glycine-HCl pH 2.1. For binding to human BSSL, single cycle kinetic data was fitted to a 1:1 binding model and kinetic parameters were retrieved using software BlAevaluation. For mouse BSSL, a steady state analysis was performed by plotting the response level at equilibrium against each concentration, and KD values were retrieved by the BlAevalution software.

Biotinylated human BSSL [7] = biological target: T2, Biotinylated human BSSL; test: flow cytometry displacement assay; 1.0 ug antibody, 1 ug b-hBSSL
Protocol: as §3, §4

[8] = biological target: T1, Human BSSL (bile salt-stimulated …); test: cell-based or functional assay; remark: listed apart in the source
[9] = biological target: T1, Human BSSL (bile salt-stimulated …); test: SPR single cycle kinetics, captured by anti-Fab, Absolute Antibody batch
Protocol: as §5

Mouse BSSL, recombinant [10] = biological target: B2; test: SPR steady state, hIgG4 S228P captured by anti-Fab
In short: as §1

AS20 scFv = test: HTRF competition against 5 nM b-hBSSL for 2.5 nM AS20 scFv
AS20 scFv, sequence (VH, as listed by the source): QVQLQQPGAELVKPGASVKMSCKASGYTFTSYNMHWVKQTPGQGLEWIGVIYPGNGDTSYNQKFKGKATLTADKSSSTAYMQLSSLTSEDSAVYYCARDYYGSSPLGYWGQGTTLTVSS
Protocol: In order to study the interaction between AS20 scFv and native mouse BSSL, a competition assay was developed. Detection of binding was enabled through donor molecule terbium-conjugated α-FLAG antibody (Cisbio #611FG2TL), which interacts with the C-terminal located FLAG-tag of the scFv, and acceptor molecule streptavidin-conjugated XL665 (Cisbio #610SAXL), which interacts with the biotin-moieties on human BSSL.
2.5 nM of AS20 scFv was pre-incubated for 2 hours with the mouse or human orthologue of BSSL, after which 5 nM b-hBSSL and the FRET donor and acceptor molecules were added. The mixture was finally incubated at room temperature for 16 hours and the binding signal (665 nm) and background/noise signal (615 nm) was measured using EnVision (PerkinElmer). The experimental output, Delta R, was calculated for each point using four replicates and two blanks.

Biotinylated human BSSL [11] = biological target: T2, Biotinylated human BSSL; test: flow cytometry displacement assay; 2.0 ug antibody, 1 ug b-hBSSL
Protocol: as §3, §4

B1: S-SL048-11 hIgG4 S228P (antibody, V domains shown)
VH: QVQLVQSGAEVKKPGASVKVSCKASGYTFTSYNMHWVRQAPGQGLEWMGVIYPGDGATSYAQKFKGRVTMTRDTSTSTVYMELSSLRSEDTAVYYCARDYYGSSPLGYWGQGTLVTVSS
VL: DIQMTQSPSSLSASVGDRVTITCSASPSISYMNWYQQKPGKAPKLLIYATSSLASGVPSRFSGSGSGTDFTLTISSLQPEDFATYYCHQRSSYPTFGQGTKLEIKR
notes: also called clone 11; mAb11
Kd [1]: 0.7 nM
percentage reduction of b-hBSSL binding to CD14+ monocytes (Biotinylated human BSSL [2]): 68%
percentage reduction of b-hBSSL binding to CD14+ monocytes (Biotinylated human BSSL [3]): 1%
BSSL hydrolysis of cholesterol esters, relative value (no antibody = 100%); 0.19 ug antibody [4]: 96.2%
BSSL hydrolysis of cholesterol esters, relative value (no antibody = 100%); 0.38 ug antibody [4]: 98.2%
BSSL hydrolysis of cholesterol esters, relative value (no antibody = 100%); 0.75 ug antibody [4]: 92.2%
BSSL hydrolysis of cholesterol esters, relative value (no antibody = 100%); 1.5 ug antibody [4]: 95.2%
BSSL hydrolysis of cholesterol esters, relative value (no antibody = 100%); 3.0 ug antibody [4]: 93.7%
BSSL hydrolysis of cholesterol esters, relative value (no antibody = 100%); 6.0 ug antibody [4]: 90.2%
percentage reduction of b-hBSSL binding to CD14+ monocytes (Biotinylated human BSSL [5]): 60%
Kd (Mouse BSSL, recombinant [6]): 65 nM
percentage reduction of b-hBSSL binding to CD14+ monocytes (Biotinylated human BSSL [7]): 9%
BSSL hydrolysis of triglycerides, relative value (no antibody = 100%); 0.19 ug antibody [8]: 109%
BSSL hydrolysis of triglycerides, relative value (no antibody = 100%); 0.38 ug antibody [8]: 114%
BSSL hydrolysis of triglycerides, relative value (no antibody = 100%); 0.75 ug antibody [8]: 125%
BSSL hydrolysis of triglycerides, relative value (no antibody = 100%); 1.5 ug antibody [8]: 112%
BSSL hydrolysis of triglycerides, relative value (no antibody = 100%); 3.0 ug antibody [8]: 120%
BSSL hydrolysis of triglycerides, relative value (no antibody = 100%); 6.0 ug antibody [8]: 113%
Kd [9]: 0.6 nM
Kd (Mouse BSSL, recombinant [10]): 24 nM

B2
IC50 (AS20 scFv): 150 to 200 nM

B3: AS20 hIgG4 S228P (antibody)
heavy: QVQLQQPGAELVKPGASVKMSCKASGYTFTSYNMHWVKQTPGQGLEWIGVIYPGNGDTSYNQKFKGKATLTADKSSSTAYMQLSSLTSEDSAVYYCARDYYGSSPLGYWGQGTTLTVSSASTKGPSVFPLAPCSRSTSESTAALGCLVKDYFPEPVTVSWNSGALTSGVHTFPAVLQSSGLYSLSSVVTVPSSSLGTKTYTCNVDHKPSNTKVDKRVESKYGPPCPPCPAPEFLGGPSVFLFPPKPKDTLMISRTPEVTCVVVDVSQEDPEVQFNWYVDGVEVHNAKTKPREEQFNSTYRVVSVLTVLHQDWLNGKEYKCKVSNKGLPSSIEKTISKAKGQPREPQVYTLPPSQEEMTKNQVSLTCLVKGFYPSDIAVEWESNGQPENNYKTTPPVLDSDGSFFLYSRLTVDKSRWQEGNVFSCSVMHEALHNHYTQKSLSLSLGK
light: QIVLTQSPAVMSASPGEKVTMTCSASSSISYMHWYQQKPGTSPKRWIYDTSKLASGVPARFSGSGSGTSYSLTISSMEAEDAATYYCHQRSSYPTFGGGTKLEIKRTVAAPSVFIFPPSDEQLKSGTASVVCLLNNFYPREAKVQWKVDNALQSGNSQESVTEQDSKDSTYSLSSTLTLSKADYEKHKVYACEVTHQGLSSPVTKSFNRGEC
notes: also called AS20 IgG4; AS20 (parental clone)
Kd [1]: 0.6 nM
percentage reduction of b-hBSSL binding to CD14+ monocytes (Biotinylated human BSSL [3]): 19%
percentage reduction of b-hBSSL binding to CD14+ monocytes (Biotinylated human BSSL [11]): 58%
Kd (Mouse BSSL, recombinant [6]): 223 nM
percentage reduction of b-hBSSL binding to CD14+ monocytes (Biotinylated human BSSL [7]): 21%
Kd [9]: 0.6 nM
Kd (Mouse BSSL, recombinant [10]): 161 nM
